The values that follow come from patent US20150344540A1, “NOVEL GLP-1 RECEPTOR AGONISTS WITH CHOLESTEROL EFFLUX ACTIVITY” (NOVO NORDISK A/S, priority 2012, published 2015).

First the molecules themselves.
B1: [Aib8,Glu23,Val25,Gln30,Leu33,Glu34,Lys35,Aib36,Lys37]-GLP-1-(7-37)-peptidyl-Glu-Phe-Leu amide (peptide)
peptide: H[Aib]EGTFTSDVSSYLEGEAVKEFIQWLLEK[Aib]KEFL-NH2
modifications: N-terminus assumed
SMILES: CC[C@H](C)[C@H](NC(=O)[C@H](Cc1ccccc1)NC(=O)[C@H](CCC(=O)O)NC(=O)[C@H](CCCCN)NC(=O)[C@@H](NC(=O)[C@H](C)NC(=O)[C@H](CCC(=O)O)NC(=O)CNC(=O)[C@H](CCC(=O)O)NC(=O)[C@H](CC(C)C)NC(=O)[C@H](Cc1ccc(O)cc1)NC(=O)[C@H](CO)NC(=O)[C@H](CO)NC(=O)[C@@H](NC(=O)[C@H](CC(=O)O)NC(=O)[C@H](CO)NC(=O)[C@@H](NC(=O)[C@H](Cc1ccccc1)NC(=O)[C@@H](NC(=O)CNC(=O)[C@H](CCC(=O)O)NC(=O)C(C)(C)NC(=O)[C@@H](N)Cc1c[nH]cn1)[C@@H](C)O)[C@@H](C)O)C(C)C)C(C)C)C(=O)N[C@@H](CCC(N)=O)C(=O)N[C@@H](Cc1c[nH]c2ccccc12)C(=O)N[C@@H](CC(C)C)C(=O)N[C@@H](CC(C)C)C(=O)N[C@@H](CCC(=O)O)C(=O)N[C@@H](CCCCN)C(=O)NC(C)(C)C(=O)N[C@@H](CCCCN)C(=O)N[C@@H](CCC(=O)O)C(=O)N[C@@H](Cc1ccccc1)C(=O)N[C@@H](CC(C)C)C(N)=O
B2: [Aib8,Val25,Gln27,Glu34,Lys35,Aib36,Ala37]-GLP-1-(7-37)-peptidyl-Glu-Phe-Leu amide (peptide)
peptide: H[Aib]EGTFTSDVSSYLEGQAVKQFIAWLVEK[Aib]AEFL-NH2
modifications: N-terminus assumed
SMILES: CC[C@H](C)[C@H](NC(=O)[C@H](Cc1ccccc1)NC(=O)[C@H](CCC(N)=O)NC(=O)[C@H](CCCCN)NC(=O)[C@@H](NC(=O)[C@H](C)NC(=O)[C@H](CCC(N)=O)NC(=O)CNC(=O)[C@H](CCC(=O)O)NC(=O)[C@H](CC(C)C)NC(=O)[C@H](Cc1ccc(O)cc1)NC(=O)[C@H](CO)NC(=O)[C@H](CO)NC(=O)[C@@H](NC(=O)[C@H](CC(=O)O)NC(=O)[C@H](CO)NC(=O)[C@@H](NC(=O)[C@H](Cc1ccccc1)NC(=O)[C@@H](NC(=O)CNC(=O)[C@H](CCC(=O)O)NC(=O)C(C)(C)NC(=O)[C@@H](N)Cc1c[nH]cn1)[C@@H](C)O)[C@@H](C)O)C(C)C)C(C)C)C(=O)N[C@@H](C)C(=O)N[C@@H](Cc1c[nH]c2ccccc12)C(=O)N[C@@H](CC(C)C)C(=O)N[C@H](C(=O)N[C@@H](CCC(=O)O)C(=O)N[C@@H](CCCCN)C(=O)NC(C)(C)C(=O)N[C@@H](C)C(=O)N[C@@H](CCC(=O)O)C(=O)N[C@@H](Cc1ccccc1)C(=O)N[C@@H](CC(C)C)C(N)=O)C(C)C
B3: [Aib8,Val25,Asn34,Lys35,Aib36,Ala37]-GLP-1-(7-37)-peptidyl-Glu-Phe-Leu amide (peptide)
peptide: H[Aib]EGTFTSDVSSYLEGQAVKEFIAWLVNK[Aib]AEFL-NH2
modifications: N-terminus assumed
SMILES: CC[C@H](C)[C@H](NC(=O)[C@H](Cc1ccccc1)NC(=O)[C@H](CCC(=O)O)NC(=O)[C@H](CCCCN)NC(=O)[C@@H](NC(=O)[C@H](C)NC(=O)[C@H](CCC(N)=O)NC(=O)CNC(=O)[C@H](CCC(=O)O)NC(=O)[C@H](CC(C)C)NC(=O)[C@H](Cc1ccc(O)cc1)NC(=O)[C@H](CO)NC(=O)[C@H](CO)NC(=O)[C@@H](NC(=O)[C@H](CC(=O)O)NC(=O)[C@H](CO)NC(=O)[C@@H](NC(=O)[C@H](Cc1ccccc1)NC(=O)[C@@H](NC(=O)CNC(=O)[C@H](CCC(=O)O)NC(=O)C(C)(C)NC(=O)[C@@H](N)Cc1c[nH]cn1)[C@@H](C)O)[C@@H](C)O)C(C)C)C(C)C)C(=O)N[C@@H](C)C(=O)N[C@@H](Cc1c[nH]c2ccccc12)C(=O)N[C@@H](CC(C)C)C(=O)N[C@H](C(=O)N[C@@H](CC(N)=O)C(=O)N[C@@H](CCCCN)C(=O)NC(C)(C)C(=O)N[C@@H](C)C(=O)N[C@@H](CCC(=O)O)C(=O)N[C@@H](Cc1ccccc1)C(=O)N[C@@H](CC(C)C)C(N)=O)C(C)C
B4: [Aib8,Val25,Gln27,Asn34,Lys35,Aib36,Ala37]-GLP-1-(7-37)-peptidyl-Glu-Phe-Leu amide (peptide)
peptide: H[Aib]EGTFTSDVSSYLEGQAVKQFIAWLVNK[Aib]AEFL-NH2
modifications: N-terminus assumed
SMILES: CC[C@H](C)[C@H](NC(=O)[C@H](Cc1ccccc1)NC(=O)[C@H](CCC(N)=O)NC(=O)[C@H](CCCCN)NC(=O)[C@@H](NC(=O)[C@H](C)NC(=O)[C@H](CCC(N)=O)NC(=O)CNC(=O)[C@H](CCC(=O)O)NC(=O)[C@H](CC(C)C)NC(=O)[C@H](Cc1ccc(O)cc1)NC(=O)[C@H](CO)NC(=O)[C@H](CO)NC(=O)[C@@H](NC(=O)[C@H](CC(=O)O)NC(=O)[C@H](CO)NC(=O)[C@@H](NC(=O)[C@H](Cc1ccccc1)NC(=O)[C@@H](NC(=O)CNC(=O)[C@H](CCC(=O)O)NC(=O)C(C)(C)NC(=O)[C@@H](N)Cc1c[nH]cn1)[C@@H](C)O)[C@@H](C)O)C(C)C)C(C)C)C(=O)N[C@@H](C)C(=O)N[C@@H](Cc1c[nH]c2ccccc12)C(=O)N[C@@H](CC(C)C)C(=O)N[C@H](C(=O)N[C@@H](CC(N)=O)C(=O)N[C@@H](CCCCN)C(=O)NC(C)(C)C(=O)N[C@@H](C)C(=O)N[C@@H](CCC(=O)O)C(=O)N[C@@H](Cc1ccccc1)C(=O)N[C@@H](CC(C)C)C(N)=O)C(C)C
B5: [Aib8,Glu23,Lys24,Val25,Glu30,His31,Glu34,Lys35,Aib36,Lys37]-GLP-1-(7-37)-peptidyl-Glu-Phe-Leu amide (peptide)
peptide: H[Aib]EGTFTSDVSSYLEGEKVKEFIEHLVEK[Aib]KEFL-NH2
modifications: N-terminus assumed
SMILES: CC[C@H](C)[C@H](NC(=O)[C@H](Cc1ccccc1)NC(=O)[C@H](CCC(=O)O)NC(=O)[C@H](CCCCN)NC(=O)[C@@H](NC(=O)[C@H](CCCCN)NC(=O)[C@H](CCC(=O)O)NC(=O)CNC(=O)[C@H](CCC(=O)O)NC(=O)[C@H](CC(C)C)NC(=O)[C@H](Cc1ccc(O)cc1)NC(=O)[C@H](CO)NC(=O)[C@H](CO)NC(=O)[C@@H](NC(=O)[C@H](CC(=O)O)NC(=O)[C@H](CO)NC(=O)[C@@H](NC(=O)[C@H](Cc1ccccc1)NC(=O)[C@@H](NC(=O)CNC(=O)[C@H](CCC(=O)O)NC(=O)C(C)(C)NC(=O)[C@@H](N)Cc1c[nH]cn1)[C@@H](C)O)[C@@H](C)O)C(C)C)C(C)C)C(=O)N[C@@H](CCC(=O)O)C(=O)N[C@@H](Cc1c[nH]cn1)C(=O)N[C@@H](CC(C)C)C(=O)N[C@H](C(=O)N[C@@H](CCC(=O)O)C(=O)N[C@@H](CCCCN)C(=O)NC(C)(C)C(=O)N[C@@H](CCCCN)C(=O)N[C@@H](CCC(=O)O)C(=O)N[C@@H](Cc1ccccc1)C(=O)N[C@@H](CC(C)C)C(N)=O)C(C)C
B6: [Aib8,Glu23,Val25,Glu34,Lys35,Val36,Lys37]-GLP-1-(7-37)-peptidyl-Glu-His-Leu amide (peptide)
peptide: H[Aib]EGTFTSDVSSYLEGEAVKEFIAWLVEKVKEHL-NH2
modifications: N-terminus assumed
SMILES: CC[C@H](C)[C@H](NC(=O)[C@H](Cc1ccccc1)NC(=O)[C@H](CCC(=O)O)NC(=O)[C@H](CCCCN)NC(=O)[C@@H](NC(=O)[C@H](C)NC(=O)[C@H](CCC(=O)O)NC(=O)CNC(=O)[C@H](CCC(=O)O)NC(=O)[C@H](CC(C)C)NC(=O)[C@H](Cc1ccc(O)cc1)NC(=O)[C@H](CO)NC(=O)[C@H](CO)NC(=O)[C@@H](NC(=O)[C@H](CC(=O)O)NC(=O)[C@H](CO)NC(=O)[C@@H](NC(=O)[C@H](Cc1ccccc1)NC(=O)[C@@H](NC(=O)CNC(=O)[C@H](CCC(=O)O)NC(=O)C(C)(C)NC(=O)[C@@H](N)Cc1c[nH]cn1)[C@@H](C)O)[C@@H](C)O)C(C)C)C(C)C)C(=O)N[C@@H](C)C(=O)N[C@@H](Cc1c[nH]c2ccccc12)C(=O)N[C@@H](CC(C)C)C(=O)N[C@H](C(=O)N[C@@H](CCC(=O)O)C(=O)N[C@@H](CCCCN)C(=O)N[C@H](C(=O)N[C@@H](CCCCN)C(=O)N[C@@H](CCC(=O)O)C(=O)N[C@@H](Cc1c[nH]cn1)C(=O)N[C@@H](CC(C)C)C(N)=O)C(C)C)C(C)C
B7: [desamino-His7,Aib8,Glu23,Val25,Glu34,Lys35,Val36,Lys37]-GLP-1-(7-37)-peptidyl-Glu-Phe-Leu amide (peptide)
peptide: [Desaminohistidyl][Aib]EGTFTSDVSSYLEGEAVKEFIAWLVEKVKEFL-NH2
SMILES: CC[C@H](C)[C@H](NC(=O)[C@H](Cc1ccccc1)NC(=O)[C@H](CCC(=O)O)NC(=O)[C@H](CCCCN)NC(=O)[C@@H](NC(=O)[C@H](C)NC(=O)[C@H](CCC(=O)O)NC(=O)CNC(=O)[C@H](CCC(=O)O)NC(=O)[C@H](CC(C)C)NC(=O)[C@H](Cc1ccc(O)cc1)NC(=O)[C@H](CO)NC(=O)[C@H](CO)NC(=O)[C@@H](NC(=O)[C@H](CC(=O)O)NC(=O)[C@H](CO)NC(=O)[C@@H](NC(=O)[C@H](Cc1ccccc1)NC(=O)[C@@H](NC(=O)CNC(=O)[C@H](CCC(=O)O)NC(=O)C(C)(C)NC(=O)CCc1c[nH]cn1)[C@@H](C)O)[C@@H](C)O)C(C)C)C(C)C)C(=O)N[C@@H](C)C(=O)N[C@@H](Cc1c[nH]c2ccccc12)C(=O)N[C@@H](CC(C)C)C(=O)N[C@H](C(=O)N[C@@H](CCC(=O)O)C(=O)N[C@@H](CCCCN)C(=O)N[C@H](C(=O)N[C@@H](CCCCN)C(=O)N[C@@H](CCC(=O)O)C(=O)N[C@@H](Cc1ccccc1)C(=O)N[C@@H](CC(C)C)C(N)=O)C(C)C)C(C)C

Where no end group is shown, it is not given here. [ ]: non-standard residue; d: D form. The star is where a group is joined. Desaminohistidyl = O=C(CCc1c[nH]cn1)*; Aib = CC(C)(N)C(=O)O

This experiment concerns the target human GLP-1 receptor (human, UniProt P43220). Briefly: cell-based or functional assay.
Regarding B1, the “CRE luciferase EC50, 0% HSA” value was found to be 0.238 nM and the “CRE luciferase EC50, 1% HSA” value came to 0.061 nM.
For B2, the “CRE luciferase EC50, 0% HSA” value was 0.191 nM and the “CRE luciferase EC50, 1% HSA” value is 0.069 nM.
In the case of B3, the “CRE luciferase EC50, 0% HSA” value was found to be 0.108 nM and the “CRE luciferase EC50, 1% HSA” value was found to be 0.062 nM.
For the molecule B4, the “CRE luciferase EC50, 0% HSA” value turned out to be 0.235 nM and the “CRE luciferase EC50, 1% HSA” value is 0.109 nM.
Regarding HGEGTFTSDVSSYLEGEAVKEFIAWLVEKVKEFL-NH2 [[Gly8,Glu23,Val25,Glu34,Lys35,Val36,Lys37]-GLP-1-(7-37)-peptidyl-Glu-Phe-Leu amide], the “CRE luciferase EC50, 0% HSA” value was determined as 6.08 nM and the “CRE luciferase EC50, 1% HSA” value is 1.38 nM.
Regarding B5, the “CRE luciferase EC50, 0% HSA” value turned out to be 1.84 nM and the “CRE luciferase EC50, 1% HSA” value turned out to be 0.593 nM.
On to B6, for which the “CRE luciferase EC50, 0% HSA” value stood at 0.089 nM and the “CRE luciferase EC50, 1% HSA” value amounted to 0.116 nM.
On to HGEGTFTSDVSSYLEGEAVKEFIAWLVEKVKEHL-NH2 [[Gly8,Glu23,Val25,Glu34,Lys35,Val36,Lys37]-GLP-1-(7-37)-peptidyl-Glu-His-Leu amide], for which the “CRE luciferase EC50, 0% HSA” value is 0.337 nM and the “CRE luciferase EC50, 1% HSA” value amounted to 0.096 nM.
In the case of B7, the “CRE luciferase EC50, 0% HSA” value turned out to be 0.886 nM and the “CRE luciferase EC50, 1% HSA” value came to 0.242 nM.
